According to patent US20230257473A1 (TENEOBIO, published 2023):

T1: human BCMA protein (human, UniProt Q02223 1-54, limits assumed)
T1 sequence (looked up): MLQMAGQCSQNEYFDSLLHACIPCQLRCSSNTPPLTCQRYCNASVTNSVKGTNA


Key:
[1] = target: BCMA on BCMA-expressing cells (H929 / NCI-H929, MM1.S, U266, Daudi) (human) (UniProt Q02223); assay: flow cytometry on H929 cells; antibody 0.781 ng/ml
[2] = target: BCMA on BCMA-expressing cells (H929 / NCI-H929, MM1.S, U266, Daudi) (human) (UniProt Q02223); assay: flow cytometry on H929 cells; antibody 3.130 ng/ml
[3] = target: BCMA on BCMA-expressing cells (H929 / NCI-H929, MM1.S, U266, Daudi) (human) (UniProt Q02223); assay: flow cytometry on H929 cells; antibody 12.500 ng/ml
[4] = target: BCMA on BCMA-expressing cells (H929 / NCI-H929, MM1.S, U266, Daudi) (human) (UniProt Q02223); assay: flow cytometry on H929 cells; antibody 25.000 ng/ml
[5] = target: BCMA on BCMA-expressing cells (H929 / NCI-H929, MM1.S, U266, Daudi) (human) (UniProt Q02223); assay: flow cytometry on H929 cells; antibody 50.000 ng/ml
[6] = target: BCMA on BCMA-expressing cells (H929 / NCI-H929, MM1.S, U266, Daudi) (human) (UniProt Q02223); assay: flow cytometry on MM1.S cells; antibody 3.130 ng/ml
[7] = target: BCMA on BCMA-expressing cells (H929 / NCI-H929, MM1.S, U266, Daudi) (human) (UniProt Q02223); assay: flow cytometry on MM1.S cells; antibody 12.500 ng/ml
[8] = target: BCMA on BCMA-expressing cells (H929 / NCI-H929, MM1.S, U266, Daudi) (human) (UniProt Q02223); assay: flow cytometry on MM1.S cells; antibody 25.000 ng/ml
[9] = target: BCMA on BCMA-expressing cells (H929 / NCI-H929, MM1.S, U266, Daudi) (human) (UniProt Q02223); assay: flow cytometry on MM1.S cells; antibody 100.000 ng/ml
[10] = target: BCMA on BCMA-expressing cells (H929 / NCI-H929, MM1.S, U266, Daudi) (human) (UniProt Q02223); assay: flow cytometry on MM1.S cells; antibody 200.000 ng/ml
[11] = target: recombinant BCMA (R&D Systems, catalog no. 193-BC) (human) (UniProt Q02223); assay: competitive ELISA, plate-bound BCMA; Ab 0.020 ng/mL; competitor APRIL 7.81 ng/mL
[12] = target: recombinant BCMA (R&D Systems, catalog no. 193-BC) (human) (UniProt Q02223); assay: competitive ELISA, plate-bound BCMA; Ab 0.200 ng/mL; competitor APRIL 0.00 ng/mL
[13] = target: recombinant BCMA (R&D Systems, catalog no. 193-BC) (human) (UniProt Q02223); assay: competitive ELISA, plate-bound BCMA; Ab 2.000 ng/mL; competitor APRIL 0.00 ng/mL
[14] = target: recombinant BCMA (R&D Systems, catalog no. 193-BC) (human) (UniProt Q02223); assay: competitive ELISA, plate-bound BCMA; Ab 2.000 ng/mL; competitor APRIL 7.81 ng/mL
[15] = target: recombinant BCMA (R&D Systems, catalog no. 193-BC) (human) (UniProt Q02223); assay: competitive ELISA, plate-bound BCMA; Ab 0.020 ng/mL; competitor APRIL 31.25 ng/mL
[16] = target: recombinant BCMA (R&D Systems, catalog no. 193-BC) (human) (UniProt Q02223); assay: competitive ELISA, plate-bound BCMA; Ab 0.002 ng/mL; competitor APRIL 250.00 ng/mL
[17] = target: recombinant BCMA (R&D Systems, catalog no. 193-BC) (human) (UniProt Q02223); assay: competitive ELISA, plate-bound BCMA; Ab 0.020 ng/mL; competitor APRIL 500.00 ng/mL
[18] = target: recombinant BCMA (R&D Systems, catalog no. 193-BC) (human) (UniProt Q02223); assay: competitive ELISA, plate-bound BCMA; Ab 2.000 ng/mL; competitor APRIL 250.00 ng/mL
[19] = target: recombinant BCMA (R&D Systems, catalog no. 193-BC) (human) (UniProt Q02223); assay: competitive ELISA, plate-bound BCMA; Ab 20.000 ng/mL; competitor APRIL 250.00 ng/mL
[20] = target: recombinant BCMA (R&D Systems, catalog no. 193-BC) (human) (UniProt Q02223); assay: competitive ELISA, plate-bound BCMA; Ab 200.000 ng/mL; competitor APRIL 500.00 ng/mL
[21] = target: BCMA on BCMA-expressing cells (H929 / NCI-H929, MM1.S, U266, Daudi) (human) (UniProt Q02223); assay: flow cytometry on H929 cells; antibody 0.000 ng/ml (background)
[22] = target: BCMA on BCMA-expressing cells (H929 / NCI-H929, MM1.S, U266, Daudi) (human) (UniProt Q02223); assay: flow cytometry on MM1.S cells; antibody 0000 ng/ml (background)
[23] = target: T1, human BCMA protein; assay: ELISA protein and cell-binding assays

Chain of BCMA on BCMA-expressing cells (H929 / NCI-H929, MM1.S, U266, Daudi) (human) (Q02223 whole entry): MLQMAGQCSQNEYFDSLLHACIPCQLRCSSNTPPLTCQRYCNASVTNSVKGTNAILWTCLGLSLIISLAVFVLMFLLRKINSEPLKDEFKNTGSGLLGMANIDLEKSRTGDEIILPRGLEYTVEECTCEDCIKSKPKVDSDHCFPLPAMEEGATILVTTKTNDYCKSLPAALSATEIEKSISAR

MFI [1] | MFI [2] | MFI [4] | MFI [6] | MFI [8] | MFI [9] | MFI [10] | A450-A570 [11] | A450-A570 [12] | A450-A570 [13] | A450-A570 [14] | A450-A570 [15] | A450-A570 [16] | A450-A570 [17] | A450-A570 [18] | A450-A570 [19] | A450-A570 [20] | MFI [21] | MFI [22] | Binder | other results
5020 | 5140 | 6610 | 2070 | 2340 | 4140 | 7340 | 0.0578 | 0.0676 | 0.107 | 0.108 | 0.0551 | 0.0607 | 0.0631 | 0.0921 | 0.413 | 1.41 | 5000 | 2990 | AntiX**BCMA_F7E_F7E (bispecific antibody, part only; not given: other chains of three-chain format, not shown: another chain or arm of the molecule) tandem VH: QVQLVESGGGLVQPGGSLRLSCVASGFTFSSNAMSWVRQAPGKGLEWVSAISGSGDYTHYSDSVKGRFTISRDNSKNTLYLQMNSLRAEDTAVYYCAKEVPGGPLVDFDSRGQGTLVTVSSGGGGSGGGGSQVQLVESGGGLVQPGGSLRLSCVASGFTFSSNAMSWVRQAPGKGLEWVSAISGSGDYTHYSDSVKGRFTISRDNSKNTLYLQMNSLRAEDTAVYYCAKEVPGGPLVDFDSRGQGTLVTVSS | MFI [3]: 5680; MFI [5]: 10900; MFI [7]: 2180
5060 | 5170 | 5480 | 2110 | 2130 | 2440 | 3180 | 0.0631 | 0.0708 | 0.0894 | 0.0895 | 0.0622 | 0.0647 | 0.0835 | 0.0837 | 0.148 | 0.482 | 5000 | 2990 | anti-BCMA heavy chain-only antibody (UniAb) with the VH of SEQ ID NO: 12 (antibody, V domains shown, Heavy chain-only antibody from UniRat; also called Clone ID No: 316302) VH: QVQLVESGGGLVQPGGSLRLSCVASGFTFSSNAMSWVRQAPGKGLEWVSAISGSGDYTHYSDSVKGRFTISRDNSKNTLYLQMNSLRAEDTAVYYCAKEVPGGPLVDFDSRGQGTLVTVSS | binding result [23]: binds
